Data: patent US20260125478A1 (VIELA BIO, published 2026)

Tests used:
[1] = target: T1, human FcγRIIA 131R on blood cells of 131R/R donors (human, UniProt P12318 34-317); test: cell-based or functional assay
T1 sequence: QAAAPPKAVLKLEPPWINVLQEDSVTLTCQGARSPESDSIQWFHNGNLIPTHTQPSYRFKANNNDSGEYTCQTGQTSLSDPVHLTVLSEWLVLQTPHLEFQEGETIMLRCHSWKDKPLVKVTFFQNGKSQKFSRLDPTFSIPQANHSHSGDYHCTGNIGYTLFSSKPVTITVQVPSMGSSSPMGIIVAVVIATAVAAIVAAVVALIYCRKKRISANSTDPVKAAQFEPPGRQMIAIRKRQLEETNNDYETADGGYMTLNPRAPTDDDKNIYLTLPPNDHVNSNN

[2] = target: T2, human FcγRIIA 131H on blood cells of 131H/H donors (human, UniProt P12318 34-317); test: cell-based or functional assay
T2 sequence (looked up): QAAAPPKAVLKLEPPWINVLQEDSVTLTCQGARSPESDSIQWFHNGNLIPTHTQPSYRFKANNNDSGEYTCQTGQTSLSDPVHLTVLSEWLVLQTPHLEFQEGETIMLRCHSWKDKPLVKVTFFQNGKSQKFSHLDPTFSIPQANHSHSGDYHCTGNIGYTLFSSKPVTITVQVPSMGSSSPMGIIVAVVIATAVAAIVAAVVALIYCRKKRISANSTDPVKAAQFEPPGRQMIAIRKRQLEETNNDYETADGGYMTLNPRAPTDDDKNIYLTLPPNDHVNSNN

[3] = target: cynomolgus monkey FcγRIIA on blood cells (cynomolgus monkey); test: cell-based or functional assay
[4] = target: T3, recombinant human FcγRI (ELISA coat, generated at MedImmune) (human, UniProt P12314 16-292, limits assumed); test: ELISA on plate-coated FcγRI (2 µg/ml), detection with goat anti-human Fc-HRP
T3 construct: also called CD64
T3 sequence (P12314 16-292 limits assumed): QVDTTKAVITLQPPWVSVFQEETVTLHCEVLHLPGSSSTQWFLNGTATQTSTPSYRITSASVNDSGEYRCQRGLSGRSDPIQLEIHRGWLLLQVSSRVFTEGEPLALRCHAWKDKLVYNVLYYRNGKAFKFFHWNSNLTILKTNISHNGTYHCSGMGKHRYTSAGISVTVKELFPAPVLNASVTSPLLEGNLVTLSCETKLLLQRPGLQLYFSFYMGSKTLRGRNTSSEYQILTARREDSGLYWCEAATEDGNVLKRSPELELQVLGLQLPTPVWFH
Description: (§1) Plates were washed five times with 200 μl of wash buffer (PBS containing 0.1% Tween 20), blocked with blocking buffer containing 5% milk in PBS for 1 hour at room temperature, and washed five additional times with wash buffer. Three-fold serial dilutions of the test antibody or control antibody (R347-Tm) were added to wells in duplicate. Plates were incubated for 2 hours at room temperature, and washed five times with wash buffer. Binding of the antibodies to the FcγRs was detected by adding 50 μl of goat anti-human Fc-HRP (Jackson ImmunoResearch Laboratories, PA) to the wells and incubating for 1 hour at room temperature, washing 10 times, and adding 50 μl TMB substrate (Pierce Biotechnology, MA). The color reaction was stopped with 50 μl 0.2M […] and the absorbance was measured using a spectrophotometer (Molecular Devices, CA) at […].

[5] = target: T4, recombinant human FcγRIIIA-158V allotype (ELISA coat, generated at MedImmune) (human, UniProt P08637 17-208, limits assumed); test: ELISA on plate-coated FcγRIIIA-158V (2 µg/ml), detection with goat anti-human Fc-HRP
T4 construct: also called FcγRIII-158V allotype; CD16A 158V
T4 sequence (P08637 17-208 F176V limits assumed): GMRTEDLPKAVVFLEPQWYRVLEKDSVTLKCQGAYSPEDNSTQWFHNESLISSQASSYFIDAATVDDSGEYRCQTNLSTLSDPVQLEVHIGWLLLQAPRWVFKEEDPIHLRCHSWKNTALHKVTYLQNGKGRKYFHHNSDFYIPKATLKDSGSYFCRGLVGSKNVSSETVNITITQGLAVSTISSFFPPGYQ
Description: as §1

[6] = target: T5, recombinant FcγRIIA-131H/H allotype (ELISA coat, generated at MedImmune) (human, UniProt P12318 34-217, limits assumed); test: ELISA on plate-coated FcγRIIA-131H/H (2 µg/ml), detection with goat anti-human Fc-HRP
T5 construct: also called human FcγRIIA; CD32A
T5 sequence (looked up): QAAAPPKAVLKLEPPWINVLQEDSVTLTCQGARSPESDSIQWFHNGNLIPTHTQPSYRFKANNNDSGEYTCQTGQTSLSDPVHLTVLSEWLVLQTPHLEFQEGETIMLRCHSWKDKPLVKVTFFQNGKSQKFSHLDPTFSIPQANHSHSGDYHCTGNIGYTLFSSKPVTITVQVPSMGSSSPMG
Description: as §1

[7] = target: T6, recombinant human FcγRIIIA-158F allotype (ELISA coat, generated at MedImmune) (human, UniProt P08637 17-208, limits assumed); test: ELISA on plate-coated FcγRIIIA-158F (2 µg/ml), detection with goat anti-human Fc-HRP
T6 construct: also called FcγRIII-158F allotype; CD16A 158F
T6 sequence (P08637 17-208 limits assumed): as the sequence (P08637 17-208 F176V limits assumed) above, with V160F counted along it
Description: as §1

[8] = target: T7, recombinant FcγRIIB (ELISA coat, generated at MedImmune) (UniProt P31994 43-217, limits assumed); test: ELISA on plate-coated FcγRIIB (2 µg/ml), detection with goat anti-human Fc-HRP
T7 construct: also called CD32B
T7 sequence (looked up): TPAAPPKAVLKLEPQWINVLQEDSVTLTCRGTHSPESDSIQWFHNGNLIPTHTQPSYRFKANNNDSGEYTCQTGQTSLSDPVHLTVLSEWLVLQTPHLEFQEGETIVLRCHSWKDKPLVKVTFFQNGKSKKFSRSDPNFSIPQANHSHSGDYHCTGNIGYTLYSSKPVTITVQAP
Description: as §1

[9] = target: T8, Human CD32A 131R extracellular domain, 6xHis_Flag tagged (human, UniProt P12318 34-217); test: HTRF epitope competition: sample IgG titrated against binding of mouse IV.3 IgG to human CD32a 131R
T8 construct: also called Hu CD32A_131Arg; human CD32A_131 Arg
T8 chain: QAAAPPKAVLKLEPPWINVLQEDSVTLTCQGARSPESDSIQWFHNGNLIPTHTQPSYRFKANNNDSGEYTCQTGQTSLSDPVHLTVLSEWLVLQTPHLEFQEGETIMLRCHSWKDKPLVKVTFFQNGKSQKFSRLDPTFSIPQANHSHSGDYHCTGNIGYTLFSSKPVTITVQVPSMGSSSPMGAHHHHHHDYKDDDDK

B1: CamIV3 (antibody, V domains shown)
VH: QVQLVQSGAEVKKPGASVKVSCKASGYTFTNYGMNWVRQAPGQRLEWMGWLNTYTGESIYPDDFKGRVTITRDTSASTAYMELSSLRSEDTAVYYCARGDYGYDDPLDYWGQGTLVTVSS
VL: DIVMTQSPLSLPVTPGEPASISCRSSKSLLHTLGNTYLHWFLQKPGQSPQLLIYRMSVLASGVPDRFSGSGSGTDFTLKISRVEAEDVGVYYCMQHLEYPLTFGQGTKLEIK
- IC50 of the loss of surface FcγRIIA (M.F.I of IV.3-Alexa 647) on monocytes, whole blood, 2 h at 37 °C [1]: 0.307 nM
- IC50 of the loss of surface FcγRIIA (M.F.I of IV.3-Alexa 647) on monocytes, whole blood, 2 h at 37 °C [2]: 0.241 nM
- IC50 of the loss of surface FcγRIIA (M.F.I of IV.3-Alexa 647) on cynomolgus monocytes, whole blood, 2 h at 37 °C [3]: 10.5 nM

B2: 32LO0350 (antibody, human IgG1, V domains shown)
VH: QVQLVQSGAEVKKPGASVKVSCKASGYTFTNYGMNWVRQAPGQRLEWMGWLNTYTGESWYPDDFKGRVTITRDTSASTAYMELSSLRSEDTAVYYCARGDYGYDDPLDYWGQGTLVTVSS
VL: DIVMTQSPLSLPVTPGEPASISCRSSKSLLHTNRNTYLHWFLQKPGQSPQLLIYRMSVLASGVPDRFSGSGSGTDFTLKISRVEAEDVGVYYCMQHLEYPLTFGQGTKLEIK
notes: also called optimized IV.3 clone 32LO0350
- binding result [4]: no binding (tested: about 15000 ng/ml)
- IC50 of the loss of surface FcγRIIA (M.F.I of IV.3-Alexa 647) on monocytes, whole blood, 2 h at 37 °C [1]: 0.0537 nM
- IC50 of the loss of surface FcγRIIA (M.F.I of IV.3-Alexa 647) on monocytes, whole blood, 2 h at 37 °C [2]: 0.0692 nM
- binding result [5]: no binding (tested: about 15000 ng/ml)
- EC50 (read off the curve) [6]: ~5 ng/mL
- IC50 of the loss of surface FcγRIIA (M.F.I of IV.3-Alexa 647) on cynomolgus monocytes, whole blood, 2 h at 37 °C [3]: 1.2 nM
- binding result [7]: no binding (tested: about 15000 ng/ml)
- binding result [8]: no binding (tested: about 15000 ng/ml)
- binding result [9]: binds

B3: 32LO0354 (antibody, human IgG1, V domains shown)
VH: QVQLVQSGAEVKKPGASVKVSCKASGYTFTNYGMNWVRQAPGQRLEWMGWLNTYTGESYYPDDFKGRVTITRDTSASTAYMELSSLRSEDTAVYYCARGDYGYDDPLDYWGQGTLVTVSS
VL: DIVMTQSPLSLPVTPGEPASISCRSSKSLLHTNRNTYLHWFLQKPGQSPQLLIYRMSVLASGVPDRFSGSGSGTDFTLKISRVEAEDVGVYYCMQHLEYPLTFGQGTKLEIK
notes: also called optimized IV.3 clone 32LO0354
- binding result [4]: no binding (tested: about 15000 ng/ml)
- IC50 of the loss of surface FcγRIIA (M.F.I of IV.3-Alexa 647) on monocytes, whole blood, 2 h at 37 °C [1]: 0.039 nM
- IC50 of the loss of surface FcγRIIA (M.F.I of IV.3-Alexa 647) on monocytes, whole blood, 2 h at 37 °C [2]: 0.0417 nM
- binding result [5]: no binding (tested: about 15000 ng/ml)
- EC50 (read off the curve) [6]: ~5 ng/mL
- IC50 of the loss of surface FcγRIIA (M.F.I of IV.3-Alexa 647) on cynomolgus monocytes, whole blood, 2 h at 37 °C [3]: 5.14 nM
- binding result [7]: no binding (tested: about 15000 ng/ml)
- binding result [8]: no binding (tested: about 15000 ng/ml)
- binding result [9]: binds

B4: 32LO0355 (antibody, human IgG1, V domains shown)
VH: QVQLVQSGAEVKKPGASVKVSCKASGYTFTNYGMNWVRQAPGQRLEWMGWLNTYTGESWYPDDFKGRVTITRDTSASTAYMELSSLRSEDTAVYYCARGDYGYDDPLDYWGQGTLVTVSS
VL: DIVMTQSPLSLPVTPGEPASISCRSSKSLLHTNKNTYLHWFLQKPGQSPQLLIYRMSVLASGVPDRFSGSGSGTDFTLKISRVEAEDVGVYYCMQHLEYPLTFGQGTKLEIK
notes: also called optimized IV.3 clone 32LO0355
- binding result [4]: no binding (tested: about 15000 ng/ml)
- IC50 of the loss of surface FcγRIIA (M.F.I of IV.3-Alexa 647) on monocytes, whole blood, 2 h at 37 °C [1]: 0.0644 nM
- IC50 of the loss of surface FcγRIIA (M.F.I of IV.3-Alexa 647) on monocytes, whole blood, 2 h at 37 °C [2]: 0.0915 nM
- binding result [5]: no binding (tested: about 15000 ng/ml)
- EC50 (read off the curve) [6]: ~5 ng/mL
- IC50 of the loss of surface FcγRIIA (M.F.I of IV.3-Alexa 647) on cynomolgus monocytes, whole blood, 2 h at 37 °C [3]: 1.01 nM
- binding result [7]: no binding (tested: about 15000 ng/ml)
- binding result [8]: no binding (tested: about 15000 ng/ml)
- binding result [9]: binds

B5: 32LO0351 (antibody, V domains shown)
VH: QVQLVQSGAEVKKPGASVKVSCKASGYTFTNYGMNWVRQAPGQRLEWMGWLNTYTGESYYPDDFKGRVTITRDTSASTAYMELSSLRSEDTAVYYCARGDYGYDDPLDYWGQGTLVTVSS
VL: DIVMTQSPLSLPVTPGEPASISCRSSKSLLHTYGNTYLHWFLQKPGQSPQLLIYRMSVLASGVPDRFSGSGSGTDFTLKISRVEAEDVGVYYCMQHLEYPLTFGQGTKLEIK
- IC50 of the loss of surface FcγRIIA (M.F.I of IV.3-Alexa 647) on monocytes, whole blood, 2 h at 37 °C [1]: 0.0559 nM
- IC50 of the loss of surface FcγRIIA (M.F.I of IV.3-Alexa 647) on monocytes, whole blood, 2 h at 37 °C [2]: 0.0524 nM
- IC50 of the loss of surface FcγRIIA (M.F.I of IV.3-Alexa 647) on cynomolgus monocytes, whole blood, 2 h at 37 °C [3]: 16.4 nM

B6: 32LO0356 (antibody, V domains shown)
VH: QVQLVQSGAEVKKPGASVKVSCKASGYTFTNYGMNWVRQAPGQRLEWMGWLNTYTGESYYPDDFKGRVTITRDTSASTAYMELSSLRSEDTAVYYCARGDYGYDDPLDYWGQGTLVTVSS
VL: DIVMTQSPLSLPVTPGEPASISCRSSKSLLHTNFNTYLHWFLQKPGQSPQLLIYRMSVLASGVPDRFSGSGSGTDFTLKISRVEAEDVGVYYCMQHLEYPLTFGQGTKLEIK
- IC50 of the loss of surface FcγRIIA (M.F.I of IV.3-Alexa 647) on monocytes, whole blood, 2 h at 37 °C [1]: 0.0431 nM
- IC50 of the loss of surface FcγRIIA (M.F.I of IV.3-Alexa 647) on monocytes, whole blood, 2 h at 37 °C [2]: 0.044 nM
- IC50 of the loss of surface FcγRIIA (M.F.I of IV.3-Alexa 647) on cynomolgus monocytes, whole blood, 2 h at 37 °C [3]: 3.78 nM
